Results reported in PMC5777972 (Protein & Cell, 2017).
Blank lines part the entries; values can stand above or below the binder they belong to.

Experiments:
[1] = target: T1, PD-L1 extracellular domain fragment (from F19 to R238) (Homo sapiens, UniProt Q9NZQ7); assay: SPR; BIAcore T100, CM5 chip, about 1000 RU of PD-L1 immobilised, scFv flowed at 5 nM to 80 nM, 25 °C, HBS-EP (150 mM NaCl, 10 mM HEPES, pH 7.4, 0.005% Tween-20), 1:1 Langmuir model; details: both partners purified
T1 construct: PD-L1 extracellular domain fragment, F19 to R238; probably the start methionine of the E. coli construct (surmise); also called two-Ig-domain PD-L1
T1 sequence (Q9NZQ7 19-238): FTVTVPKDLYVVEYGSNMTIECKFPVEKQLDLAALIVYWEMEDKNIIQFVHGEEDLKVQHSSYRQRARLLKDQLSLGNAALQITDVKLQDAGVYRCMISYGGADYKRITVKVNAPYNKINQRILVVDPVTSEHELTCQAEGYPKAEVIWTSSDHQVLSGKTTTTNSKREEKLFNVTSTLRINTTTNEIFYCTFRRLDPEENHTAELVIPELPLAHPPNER

two-Ig-domain PD-L1 = target: T2, two-Ig-domain PD-L1 (Homo sapiens, UniProt Q9NZQ7); assay: SPR; PD-L1 protein immobilised on the chip, scFvs of the anti-PD-L1 MAbs flowed through; BIAcore T100; details: both partners purified
T2 construct: PD-L1, the two Ig domains (IgV and the second Ig domain)
T2 sequence (Q9NZQ7 19-238): as above

- koff [1]: 7.53e-05 s⁻¹
- kon [1]: 1.61e+06 M⁻¹ s⁻¹
B1: avelumab-scFv (scFv, V domains shown)
VH: EVQLLESGGGLVQPGGSLRLSCAASGFTFSSYIMMWVRQAPGKGLEWVSSIYPSGGITFYADTVKGRFTISRDNSKNTLYLQMNSLRAEDTAVYYCARIKLGTVTTVDYWGQGTLVTVSS
VL: QSALTQPASVSGSPGQSITISCTGTSSDVGGYNYVSWYQQHPGKAPKLMIYDVSNRPSGVSNRFSGSKSGNTASLTISGLQAEDEADYYCSSYTSSSTRVFGTGTKVTVL
notes: VL of avelumab; avelumab-scFv 'obtained as durvalumab-scFv'; VH of avelumab; Order VL-linker-VH is stated for durvalumab-scFv only; also called avalumab-scFv

- Kd (two-Ig-domain PD-L1): 0.0467 nM
B2: scFv of avelumab (scFv, V domains shown)
VH: B1 VH
VL: B1 VL
notes: VH and VL of avelumab as in the cited complex with PD-L1, PDB 5GRJ; The parent antibody is IgG1; the scFv was used for SPR; Its preparation may be told in the supplementary information
